How the values were obtained:
Capu(1–321) (Drosophila) = Capu(1–321) (Drosophila) (UniProt Q24120)
[1] = target: Capu-NT, the N-terminal half of Cappuccino (aa 1–466) (Drosophila) (UniProt Q24120)
[2] = target: Capu-tail–Alexa Fluor 488 (Drosophila); assay: fluorescence polarisation
AUC = target: the molecule itself; assay: AUC
SEC-MALS = target: the molecule itself; assay: SEC-MALS
[3] = target: T1, Capu-CT, the C-terminal half of Cappuccino (aa 467–1059) (Drosophila, UniProt Q24120 467-1059); assay: cell-based or functional assay
T1 sequence (looked up): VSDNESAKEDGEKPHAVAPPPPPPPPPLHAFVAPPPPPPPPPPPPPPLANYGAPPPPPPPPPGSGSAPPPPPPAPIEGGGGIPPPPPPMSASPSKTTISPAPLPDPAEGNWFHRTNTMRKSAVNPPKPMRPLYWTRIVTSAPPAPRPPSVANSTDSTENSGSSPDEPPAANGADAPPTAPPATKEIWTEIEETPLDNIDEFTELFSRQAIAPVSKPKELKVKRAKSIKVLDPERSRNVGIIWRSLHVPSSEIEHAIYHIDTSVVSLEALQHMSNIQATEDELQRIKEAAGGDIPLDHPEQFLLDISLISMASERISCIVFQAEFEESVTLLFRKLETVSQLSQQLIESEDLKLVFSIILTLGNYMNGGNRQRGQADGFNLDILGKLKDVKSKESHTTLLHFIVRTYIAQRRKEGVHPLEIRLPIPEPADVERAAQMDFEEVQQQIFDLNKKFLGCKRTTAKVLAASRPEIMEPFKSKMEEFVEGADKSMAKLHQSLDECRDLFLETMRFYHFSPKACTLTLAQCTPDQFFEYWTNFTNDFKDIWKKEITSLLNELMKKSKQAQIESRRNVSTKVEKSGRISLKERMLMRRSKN

“Capu-tail (monomeric peptide cleaved from GST–Capu-tail)” was tested. Which EC50 of relief of Capu(1–321) inhibition of Capu-CT in the pyrene-actin assay (Capu(1–321) (Drosophila)) did it give?
The EC50 of relief of Capu(1–321) inhibition of Capu-CT in the pyrene-actin assay was 3000 nM.

“GST–Capu-tail (dimeric) (domain or fragment)” was tested. Which Kd calculated from the pyrene-actin competition assay (Vinson analysis) [1] did it give?
The Kd calculated from the pyrene-actin competition assay (Vinson analysis) was 167 nM.

B1: Capu-NT, the N-terminal half of Cappuccino (aa 1–466) (domain or fragment, Drosophila, UniProt Q24120 1-466, looked up)
chain: MALQLGKKLAQVLGSGAGSPLTPGTMEPCAAGSGSPLANGELFNVSKAKKVELQNLSSRFTAAVTQTPPGVTSSTPNESGVTGPAGPLGATTSSPSLETQSTVIISFKSSQTPVQSQTNSAASENVEDDTAPLPLPPPPPGFGTPTTPLLSSNVLKKVASFTVEKSSAGNNSSNPPNLCPTSDETTLLATPCSSSLTVATLPPEIAVGAAAGGVAGGAGSRRGSSYVPEKLSFAAYEKFEGQMLIKWLISTMQSNPKSSSGDANQELFNTLALQFCNNLKYVGVLKQISNEHLDCGFSPYEMYQWTHTEQPTTSLPLTPGKLDKVAAWPFSSTPSGIRALESASLASLGAGGVAGSLATIATASTASSDNQKTLQQILKKRLLNCTTLAEVHAVVNELLSSVDEPPRRPSKRCVNLTELLNASEATVYEYNKTGAEGCVKSFTDAETQTESEDCEGTCKCGQSSTK
With B1 as the molecule, how does the Kd [2] read?
Its Kd is 300 nM.

What about the Kd (AUC) of the same molecule?
Its Kd is 245 nM.

And the “stoichiometry N” value (AUC)?
The value was 2.

B2: Capu(1–321) (domain or fragment, Drosophila, UniProt Q24120 1-321, looked up)
chain: MALQLGKKLAQVLGSGAGSPLTPGTMEPCAAGSGSPLANGELFNVSKAKKVELQNLSSRFTAAVTQTPPGVTSSTPNESGVTGPAGPLGATTSSPSLETQSTVIISFKSSQTPVQSQTNSAASENVEDDTAPLPLPPPPPGFGTPTTPLLSSNVLKKVASFTVEKSSAGNNSSNPPNLCPTSDETTLLATPCSSSLTVATLPPEIAVGAAAGGVAGGAGSRRGSSYVPEKLSFAAYEKFEGQMLIKWLISTMQSNPKSSSGDANQELFNTLALQFCNNLKYVGVLKQISNEHLDCGFSPYEMYQWTHTEQPTTSLPLTPGK
How did the Kd [2] turn out when B2 was run?
Its Kd is 300 nM.

And the “stoichiometry N” value (SEC-MALS)?
Its value is 2.

B3: Capu(1–222) (domain or fragment, Drosophila, UniProt Q24120 1-222, looked up)
chain: MALQLGKKLAQVLGSGAGSPLTPGTMEPCAAGSGSPLANGELFNVSKAKKVELQNLSSRFTAAVTQTPPGVTSSTPNESGVTGPAGPLGATTSSPSLETQSTVIISFKSSQTPVQSQTNSAASENVEDDTAPLPLPPPPPGFGTPTTPLLSSNVLKKVASFTVEKSSAGNNSSNPPNLCPTSDETTLLATPCSSSLTVATLPPEIAVGAAAGGVAGGAGSRR
How did the Kd [2] turn out when B3 was run?
Its Kd is 4800 nM.

What about the “inhibition activity in the pyrene-actin assay relative to Capu-NT, at 100 nM” value [3] of the same molecule?
The value was ~40%.

Reference: publication PMC3459857 (Molecular Biology of the Cell, 2012)
